For test [1], the target named is fluoresceinyl-labeled peptide of PLP1. Nature of the test: other fluorescence titration; 0.5 µM fluoresceinyl-labeled peptide titrated with recombinant Nef(2-210); compared with a buffer control titration; fit of a simple bimolecular model with ligand depletion.
In test [2] the target is T1, recombinant HIV-1 SF2 Nef(2-210) protein (HIV-1 isolate SF2, UniProt P03407 2-210).
T1 construct: Nef protein of HIV-1 isolate SF2, residues 2-210; also called purified Nef protein; source: recombinant, purified, prepared as described in [68]
The test is described as above. Conditions: both partners purified.

Where no end group is shown, it is not given here. The star is where a group is joined. FITC = O=C1OC2(c3ccc(O)cc3Oc3cc(O)ccc32)c2ccc(NC(=S)*)cc21

T1 sequence (P03407 2-210): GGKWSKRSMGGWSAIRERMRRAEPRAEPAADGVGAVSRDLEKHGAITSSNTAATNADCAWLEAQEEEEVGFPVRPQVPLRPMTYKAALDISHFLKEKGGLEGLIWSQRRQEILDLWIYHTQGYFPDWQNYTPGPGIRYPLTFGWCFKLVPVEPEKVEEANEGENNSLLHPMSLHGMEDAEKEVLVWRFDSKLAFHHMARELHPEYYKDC

With “recombinant HIV-1 SF2 Nef(2-210) protein (from UniProt P03407 2-210) (natural protein)”, the equilibrium dissociation constant (Kd) in test [1] came to 710 nM.

B1: fluoresceinyl-labeled peptide GPM6B(112-127) (peptide, UniProt Q13491-1 112-127, looked up)
peptide: {FITC}-TTSAVKELHGEFKTTA
notes: GPM6B cytoplasmic loop, residues 112-127; numbers count on: UniProtKB entry Q13491-1; also called FITC-labeled GPM6B peptide; source: synthetic peptide
For the molecule B1, the dissociation constant (Kd) in test [2] amounted to 640 ± 60 nM.
